Experimental data published in PMC7109055.

Tests used:
[1] = molecular target: His6-VanSSC (full-length VanS sensor histidine kinase from Streptomyces coelicolor) (Streptomyces coelicolor) (UniProt Q9X942); assay: SEC; analytical gel filtration on Superose 12 10/300; 20 mM HEPES pH 7.8, 200 mM NaCl (legend: 300 mM NaCl), 0.075% DPC; elution volume compared with protein standards
[2] = molecular target: His6-VanSSC (full-length VanS sensor histidine kinase from Streptomyces coelicolor) (Streptomyces coelicolor) (UniProt Q9X942); assay: native gel or EMSA

In the case of “His6-VanSSC (full-length VanS sensor histidine kinase from Streptomyces coelicolor) (from UniProt Q9X942 1-364) (enzyme)”, the stoichiometry N [1] is reported as 2 and the stoichiometry N [2] is reported as 2.
